Test results from patent US10251952B2, “Humanized anti-tau(pS422) antibody brain shuttles and use thereof” (Hoffmann-La Roche Inc., priority 2014, dated 2019).

Target: human tau(pS422) (Homo sapiens, UniProt P10636, S739X)
Test: BIAcore kinetic screening and kinetic rates of humanized VH/VL combinations
Assay type: binding
Conditions: 25 °C; VH14 or VH20 with VL variants
Experimental: In the following Table characteristics of the different humanized variants of the rabbit light chain variable domain in combination with the humanized heavy chain variable domains VH14 and VH20, respectively, are shown. Binding partner was human tau(pS422).
Kinetic screening was performed according to Schraeml et al. (Schraeml, M. and M. Biehl, Methods Mol. Biol. 901 (2012) 171-181) on a BIAcore 4000 instrument, mounted with a BIAcore CM5 sensor. The BIAcore 4000 instrument was under the control of the software version V1.1. A BIAcore CM5 series S chip was mounted into the instrument and was hydrodynamically addressed and preconditioned according to the manufacturer's instructions. The instrument buffer was HBS-EP buffer (10 mM HEPES (pH 7.4), 150 mM NaCl, 1 mM EDTA, 0.05% (w/v) P20). An antibody capture system was prepared on the sensor surface. A polyclonal goat anti-human antibody with human IgG-Fc specificity (Jackson Lab.) was immobilized at 30 μg/ml in 10 mM sodium acetate buffer (pH 5) to spots 1, 2, 4 and 5 in the instrument's flow cells 1, 2, 3 and 4 at 10,000 RU using NHS/EDC chemistry. In each flow cell the antibodies were captured on spot 1 and spot 5. Spot 2 and spot 4 were used as reference spots. The sensor was deactivated with a 1 M ethanolamine solution. Humanized antibody derivatives were applied at concentrations between 44 nM and 70 nM in instrument buffer supplemented with 1 mg/ml CMD (carboxymethyldextrane). The antibodies were injected at a flow rate of 30 μl/min for 2 minutes. The capture level (CL) of the surface-presented antibodies was measured in rel. response units (RU). The analytes in solution, phosphorylated human tau protein, non-phosphorylated human tau protein and the phosphorylated human tau mutant protein T422S were injected at 300 nM for 3 minutes at a flow rate of 30 μl/minute. The dissociation was monitored for 5 minutes. The capture system was regenerated by a 1 minute injection of 10 mM glycine buffer, pH 1.7 at 30 μL/minute over all flow cells. Two report points, the recorded signal shortly before the end of the analyte injection, denoted as binding late (BL) and the recorded signal shortly before the end of the dissociation time, stability late (SL), were used to characterize the kinetic screening performance. Furthermore, the dissociation rate constant kd (1/s) was calculated according to a Langmuir model and the antibody/antigen complex half-life was calculated in minutes according to the formula ln(2)/(60*kd). The molar ratio (MR) was calculated according to the formula MR=(Binding Late (RU))/(Capture level (RU))*(MW(antibody)/(MW(antigen)). In case the sensor was configured with a suitable amount of antibody ligand capture level, each antibody should be able to functionally bind at least to one analyte in solution, which is represented by a molar ratio of MR=1.0. Then, the molar ratio is also an indicator for the valence mode of analyte binding. The maximum valence can be MR=2 for an antibody binding two analytes, one with each Fab valence.
In another embodiment, kinetic rates were determined at 25° C. and 37° C. using the same experimental setup, but using multiple concentration series of each analyte in solution at 0 nM (buffer), 1.2 nM, 3.7 nM, 11.1 nM, 33.3 nM, 100 nM and 300 nM. From the concentration-dependent binding behavior the kinetic data was calculated using the BIAcore evaluation software according to the manufacturer's instructions and a Langmuir 1.1 model with RMAX global.

kd [s⁻¹]	t/2 diss [min]	Molecule
0.00248	5	VH14 with VL12: anti-human tau(pS422) antibody; VH SEQ ID NO: 50, VL SEQ ID NO: 34 (antibody, V domains shown, humanized sequence) VH: QQLVESGGGLVQPGGSLRLSCAASGFSLSSNAINWVRQAPGKGLEWVGYIAVSGNTYYASWAKGRFTISRDNSKNTLYLQMNSLRAEDTAVYYCGKSNIWGPGTLVTVSS VL: DIQMTQSPSSLSASVGDRVTITCRASQGVRTNKLAWFQQKPGQPPKRLIYSASTLQSGVPSRFSGSGSGTEFTLTISSLQPEDFATYYCLGYFDCSIADCVAFGGGTKVEIK
0.00363	3	VH14 with VL15: anti-human tau(pS422) antibody; VH SEQ ID NO: 50, VL SEQ ID NO: 35 (antibody, V domains shown, humanized sequence) VH: QQLVESGGGLVQPGGSLRLSCAASGFSLSSNAINWVRQAPGKGLEWVGYIAVSGNTYYASWAKGRFTISRDNSKNTLYLQMNSLRAEDTAVYYCGKSNIWGPGTLVTVSS VL: DIQMTQSPSSLSASVGDRVTITCRASQGVRTNKLAWFQQKPGQPPKRLIYSASTLQSGVPSRFSGSGSGTEFTLTISSLQPEDFATYYCLGYFDSSIADSVAFGGGTKVEIK

Same assay, conditions: 25 °C; VL17 or VL19 with VH variants

kd [s⁻¹]	t/2 diss [min]	Molecule
0.00063	18	VL19 with VH24: anti-human tau(pS422) antibody; VH SEQ ID NO: 56, VL SEQ ID NO: 38 (antibody, V domains shown, humanized sequence) VH: EVQLLESGGGLVQPGGSLRLSCAASGFSLSSNAINWVRQAPGKGLEWVGYIAVSGNTYYADSVKGRFTISKDNSKNTVYLQMNSLRAEDTAVYYCGKSNIWGQGTLVTVSS VL: AQVMTQSPSSLSASVGDRVTITCRSSQSVRTNKLAWFQQKPGQPPKRLIYSASTLDFGVPSRFSGSGSGTEFTLTISSLQPEDFATYYCLGYFDCSIADCVAFGGGTKVEIK
0.002	6	VL19 with VH19: anti-human tau(pS422) antibody; VH SEQ ID NO: 53, VL SEQ ID NO: 38 (antibody, V domains shown, humanized sequence) VH: QQLVESGGGLVQPGGSLRLSCAASGFSLSSNAINWVRQAPGKGLEWVGYIAVSGNTYYADSVKGRFTISKDNSKNTLYLQMNSLRAEDTAVYYCGKSNIWGQGTLVTVSS VL: AQVMTQSPSSLSASVGDRVTITCRSSQSVRTNKLAWFQQKPGQPPKRLIYSASTLDFGVPSRFSGSGSGTEFTLTISSLQPEDFATYYCLGYFDCSIADCVAFGGGTKVEIK
0.0019	6	VL19 with VH01: anti-human tau(pS422) antibody; VH SEQ ID NO: 46, VL SEQ ID NO: 38 (antibody, V domains shown, humanized sequence) VH: QQLVESGGGLVQPGGSLRLSCAASGFSLSSNAINWVRQAPGKGLEWVGYIAVSGNTYYASWAKGRFTISRDNSKNTLYLQMNSLRAEDTAVYYCGKSNIWGQGTLVTVSS VL: AQVMTQSPSSLSASVGDRVTITCRSSQSVRTNKLAWFQQKPGQPPKRLIYSASTLDFGVPSRFSGSGSGTEFTLTISSLQPEDFATYYCLGYFDCSIADCVAFGGGTKVEIK
0.0021	6	VL19 with VH22: anti-human tau(pS422) antibody; VH SEQ ID NO: 54, VL SEQ ID NO: 38 (antibody, V domains shown, humanized sequence) VH: EVQLLESGGGLVQPGGSLRLSCAASGFSLSSNAINWVRQAPGKGLEWVGYIAVSGNTYYADSVKGRFTISRDNSKNTLYLQMNSLRAEDTAVYYCGKSNIWGQGTLVTVSS VL: AQVMTQSPSSLSASVGDRVTITCRSSQSVRTNKLAWFQQKPGQPPKRLIYSASTLDFGVPSRFSGSGSGTEFTLTISSLQPEDFATYYCLGYFDCSIADCVAFGGGTKVEIK
0.002	6	VL17 with VH22: anti-human tau(pS422) antibody; VH SEQ ID NO: 54, VL SEQ ID NO: 37 (antibody, V domains shown, humanized sequence) VH: EVQLLESGGGLVQPGGSLRLSCAASGFSLSSNAINWVRQAPGKGLEWVGYIAVSGNTYYADSVKGRFTISRDNSKNTLYLQMNSLRAEDTAVYYCGKSNIWGQGTLVTVSS VL: DIQMTQSPSSLSASVGDRVTITCRSSQSVRTNKLAWFQQKPGQPPKRLIYSASTLDFGVPSRFSGSGSGTEFTLTISSLQPEDFATYYCLGYFDCSIADCVAFGGGTKVEIK
0.0007	17	VL17 with VH23: anti-human tau(pS422) antibody; VH SEQ ID NO: 55, VL SEQ ID NO: 37 (antibody, V domains shown, humanized sequence) VH: EVQVLESGGGLVQPGGSLRLSCAVSGFSLSSNAINWVRQAPGKGLEWVGYIAVSGNTYYADSVKGRFTISKDNSKNTVYLQMNSLRAEDTAVYYCGKSNIWGQGTLVTVSS VL: DIQMTQSPSSLSASVGDRVTITCRSSQSVRTNKLAWFQQKPGQPPKRLIYSASTLDFGVPSRFSGSGSGTEFTLTISSLQPEDFATYYCLGYFDCSIADCVAFGGGTKVEIK
0.0019	6	VL19 with VH18: anti-human tau(pS422) antibody; VH SEQ ID NO: 52, VL SEQ ID NO: 38 (antibody, V domains shown, humanized sequence) VH: QQLVESGGGLVQPGGSLRLSCAASGFSLSSNAINWVRQAPGKGLEWVGYIAVSGNTYYADSVKGRFTISRDNSKNTLYLQMNSLRAEDTAVYYCGKSNIWGQGTLVTVSS VL: AQVMTQSPSSLSASVGDRVTITCRSSQSVRTNKLAWFQQKPGQPPKRLIYSASTLDFGVPSRFSGSGSGTEFTLTISSLQPEDFATYYCLGYFDCSIADCVAFGGGTKVEIK
0.00057	20	VL19 with VH23: anti-human tau(pS422) antibody; VH SEQ ID NO: 55, VL SEQ ID NO: 38 (antibody, V domains shown, humanized sequence) VH: EVQVLESGGGLVQPGGSLRLSCAVSGFSLSSNAINWVRQAPGKGLEWVGYIAVSGNTYYADSVKGRFTISKDNSKNTVYLQMNSLRAEDTAVYYCGKSNIWGQGTLVTVSS VL: AQVMTQSPSSLSASVGDRVTITCRSSQSVRTNKLAWFQQKPGQPPKRLIYSASTLDFGVPSRFSGSGSGTEFTLTISSLQPEDFATYYCLGYFDCSIADCVAFGGGTKVEIK
0.0023	5	VL17 with VH18: anti-human tau(pS422) antibody; VH SEQ ID NO: 52, VL SEQ ID NO: 37 (antibody, V domains shown, humanized sequence) VH: QQLVESGGGLVQPGGSLRLSCAASGFSLSSNAINWVRQAPGKGLEWVGYIAVSGNTYYADSVKGRFTISRDNSKNTLYLQMNSLRAEDTAVYYCGKSNIWGQGTLVTVSS VL: DIQMTQSPSSLSASVGDRVTITCRSSQSVRTNKLAWFQQKPGQPPKRLIYSASTLDFGVPSRFSGSGSGTEFTLTISSLQPEDFATYYCLGYFDCSIADCVAFGGGTKVEIK
0.00079	15	VL17 with VH24: anti-human tau(pS422) antibody; VH SEQ ID NO: 56, VL SEQ ID NO: 37 (antibody, V domains shown, humanized sequence) VH: EVQLLESGGGLVQPGGSLRLSCAASGFSLSSNAINWVRQAPGKGLEWVGYIAVSGNTYYADSVKGRFTISKDNSKNTVYLQMNSLRAEDTAVYYCGKSNIWGQGTLVTVSS VL: DIQMTQSPSSLSASVGDRVTITCRSSQSVRTNKLAWFQQKPGQPPKRLIYSASTLDFGVPSRFSGSGSGTEFTLTISSLQPEDFATYYCLGYFDCSIADCVAFGGGTKVEIK
